{
  "source": "paper PMC5385928",
  "about": "(Nature structural & molecular biology, 2016)",
  "key": {"[1]": {"target": "DNA damage-binding protein 1 (DDB1), full length human (human, UniProt Q16531 1-1140)", "sequence (Q16531 whole entry)": "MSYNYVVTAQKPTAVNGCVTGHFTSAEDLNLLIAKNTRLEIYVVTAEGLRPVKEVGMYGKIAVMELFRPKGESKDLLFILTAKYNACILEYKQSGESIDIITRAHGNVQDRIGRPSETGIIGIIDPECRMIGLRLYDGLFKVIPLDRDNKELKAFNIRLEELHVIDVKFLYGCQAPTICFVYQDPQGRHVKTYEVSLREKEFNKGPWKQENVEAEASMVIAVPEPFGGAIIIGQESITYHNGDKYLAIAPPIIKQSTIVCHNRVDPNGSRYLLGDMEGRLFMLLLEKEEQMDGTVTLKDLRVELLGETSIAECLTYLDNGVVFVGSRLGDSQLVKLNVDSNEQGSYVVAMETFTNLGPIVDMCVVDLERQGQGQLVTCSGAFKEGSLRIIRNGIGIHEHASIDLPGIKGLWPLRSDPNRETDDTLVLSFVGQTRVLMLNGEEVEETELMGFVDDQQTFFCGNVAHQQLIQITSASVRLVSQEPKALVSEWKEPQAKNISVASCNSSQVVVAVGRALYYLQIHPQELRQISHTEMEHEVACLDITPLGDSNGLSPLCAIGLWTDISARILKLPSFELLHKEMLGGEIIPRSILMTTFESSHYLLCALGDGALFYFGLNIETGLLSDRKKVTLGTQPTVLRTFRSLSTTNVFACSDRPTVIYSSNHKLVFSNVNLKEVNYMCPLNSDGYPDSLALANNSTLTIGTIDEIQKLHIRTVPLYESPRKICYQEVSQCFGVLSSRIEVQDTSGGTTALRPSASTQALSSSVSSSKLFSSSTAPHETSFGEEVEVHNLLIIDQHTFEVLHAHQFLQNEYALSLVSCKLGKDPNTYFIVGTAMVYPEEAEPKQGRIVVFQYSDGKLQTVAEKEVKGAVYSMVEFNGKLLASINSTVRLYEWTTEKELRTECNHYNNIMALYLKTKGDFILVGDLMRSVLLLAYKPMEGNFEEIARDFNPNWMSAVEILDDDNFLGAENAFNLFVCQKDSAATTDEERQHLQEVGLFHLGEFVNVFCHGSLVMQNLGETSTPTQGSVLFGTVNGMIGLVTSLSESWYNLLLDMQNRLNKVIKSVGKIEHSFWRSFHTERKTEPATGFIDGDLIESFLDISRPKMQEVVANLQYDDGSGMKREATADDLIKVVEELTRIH", "assay": "crystal structure"}, "[2]": {"target": "Uracil-DNA glycosylase UNG2, catalytic domain (residues 83-304) (human, UniProt P13051-2 83-304)", "sequence (P13051 92-313)": "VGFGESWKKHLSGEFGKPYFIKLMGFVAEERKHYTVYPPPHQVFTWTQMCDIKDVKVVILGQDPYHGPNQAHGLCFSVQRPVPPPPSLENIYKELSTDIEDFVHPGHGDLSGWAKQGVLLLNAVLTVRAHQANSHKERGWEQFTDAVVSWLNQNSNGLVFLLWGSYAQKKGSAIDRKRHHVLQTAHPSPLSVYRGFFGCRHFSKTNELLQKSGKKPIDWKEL", "assay": "crystal structure"}},
  "data": [
    {"binder": "DDB1- and CUL4A-associated factor 1 (DCAF1), C-terminal region including the WD40 domain (residues 1046-1396) (domain or fragment) not shown", "values": [
      {"measurement": "binding result", "setting": "[1]", "value": "binds"}
    ]},
    {"binder": "HIV-1 (NL4-3 clone) Vpr with H78C mutation (natural protein, UniProt P12520 1-96, looked up) MEQAPEDQGPQREPYNEWTLELLEELKSEAVRHFPRIWLHNLGQHIYETYGDTWAGVEAIIRILQQLLFIHFRIGCRCSRIGVTRQRRARNGASRS", "values": [
      {"measurement": "binding result", "setting": "[2]", "value": "binds"}
    ]}
  ]
}
